# According to the supplement of paper PMC7125110:
# ± gives the standard error. Fewer inactive variants are shown than the library holds.
# B1: glmS ribozyme (parent)
# chain: AUAAAAGCGCCAGAACUACAGAAAUGUAGUUGACGAGGAGGAGGUUUAUCGAAUUUUCGGCGGAUGCCUCCAAA
# Columns and labels:
# Details in all cases: with glucosamine-6-phosphate
# [1] = variants of: B1; assay: self-cleavage kobs at 40 uM GlcN6P; higher = faster cleavage; RNA array
# How it was run: (§1)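 Using a hybridised Cy3 probe at 37 °C, barcoded ribozyme variants transcribed in situ by E. coli RNA polymerase on sequenced MiSeq chips were monitored across tiles imaged over ~14 h. The flow contained glucosamine-6-phosphate from 40 μM to 10 mM in HEPES/KCl/Mg(OAc)2 buffer. Signals were normalised to baseline and to non-cleaving reference variants before per-tile medians were fit to one- or two-exponential decays to yield kobs. Weighted Michaelis–Menten fits across concentrations gave kcat and KM.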
# [2] = variants of: B1; assay: self-cleavage kobs at 10000 uM GlcN6P; higher = faster cleavage; RNA array
# How it was run: as §1
# [3] = variants of: B1; assay: self-cleavage kobs at 160 uM GlcN6P; higher = faster cleavage; RNA array
# How it was run: as §1
# [4] = variants of: B1; assay: self-cleavage kobs at 640 uM GlcN6P; higher = faster cleavage; RNA array
# How it was run: as §1
# [5] = variants of: B1; assay: self-cleavage kobs at 2500 uM GlcN6P; higher = faster cleavage; RNA array
# How it was run: as §1
Variant,self-cleavage kobs at 40 uM GlcN6P [1] [s⁻¹],self-cleavage kobs at 10000 uM GlcN6P [2] [s⁻¹],self-cleavage kobs at 160 uM GlcN6P [3] [s⁻¹],self-cleavage kobs at 640 uM GlcN6P [4] [s⁻¹],self-cleavage kobs at 2500 uM GlcN6P [5] [s⁻¹]
A36U G44C U47G,< 1e-05,< 1e-05,,,
A39U C70U,0.000786 ± 6.4e-05,0.0395 ± 0.0076,0.00158 ± 0.00038,0.00436 ± 0.00059,0.0108 ± 0.0033
A36C G44U U54G G66A C71A,< 1e-05,< 1e-05,,,
U45G C50A,< 1e-05,,,,
A39G G40A A53C,3.7e-05 ± 1.8e-05,0.00139 ± 0.00041,,,
G38U U69G,0.000121 ± 1.9e-05,4.47e-05 ± 9.9e-06,,9.8e-05 ± 4.7e-05,7.1e-05 ± 1.6e-05
A42G C71A,0.000338 ± 7.5e-05,0.0105 ± 0.003,0.000606 ± 0.00021,0.00207 ± 0.00033,0.00316 ± 0.0013
A39U U54G U55G,0.000181 ± 6.2e-05,,,0.00525 ± 0.0012,0.0171 ± 0.0034
A39U G43A C67G,0.000153 ± 4.5e-05,0.00313 ± 0.00085,9.45e-05 ± 3.1e-05,0.000465 ± 0.00019,0.000131 ± 6.2e-05
A42G A52G U65G,< 1e-05,0.000346 ± 8.1e-05,,,8.47e-05 ± 2.8e-05
G40C C67A C71A,3.18e-05 ± 1.4e-05,0.000726 ± 0.00011,,,
G37U G40C G44U,< 1e-05,,,,
G43U G44A,< 1e-05,< 1e-05,< 1e-05,< 1e-05,< 1e-05
G43A C61A,< 1e-05,,< 1e-05,< 1e-05,
G41U C50A,< 1e-05,< 1e-05,< 1e-05,< 1e-05,< 1e-05
A42C G63A,< 1e-05,< 1e-05,< 1e-05,< 1e-05,
G40U U49C,< 1e-05,< 1e-05,< 1e-05,< 1e-05,
G40U C68A,< 1e-05,< 1e-05,< 1e-05,< 1e-05,< 1e-05
G38C G44U,< 1e-05,< 1e-05,< 1e-05,< 1e-05,< 1e-05
A36U G37C G41C U55G,< 1e-05,< 1e-05,,< 1e-05,
G44C U57C,< 1e-05,< 1e-05,< 1e-05,< 1e-05,< 1e-05
A39C G40C U47A U56G,< 1e-05,,,,

Variant,self-cleavage kobs at 40 uM GlcN6P [1] [s⁻¹],self-cleavage kobs at 10000 uM GlcN6P [2] [s⁻¹],self-cleavage kobs at 160 uM GlcN6P [3] [s⁻¹],self-cleavage kobs at 640 uM GlcN6P [4] [s⁻¹],self-cleavage kobs at 2500 uM GlcN6P [5] [s⁻¹]
U45A C70G,0.000107 ± 4.1e-05,0.000826 ± 0.00032,0.000105 ± 3.6e-05,0.000198 ± 7.9e-05,0.00053 ± 0.00019
G41U U55G C68U C70U,< 1e-05,,,,
G37C A39G C50U,< 1e-05,,,,
G43U U49A G60A C68U,< 1e-05,< 1e-05,,,
G40A G41C A48C C68A C70U,< 1e-05,< 1e-05,,,
G41C G44U,< 1e-05,< 1e-05,< 1e-05,< 1e-05,< 1e-05
G41C G44A,< 1e-05,< 1e-05,< 1e-05,< 1e-05,
U45G G62A C70G C71G,< 1e-05,,,,
G37A U49A,< 1e-05,,,< 1e-05,< 1e-05
G37C G41U,< 1e-05,< 1e-05,< 1e-05,< 1e-05,< 1e-05
G38A G41C G43U,< 1e-05,,,,
G37U A42G,< 1e-05,,,< 1e-05,< 1e-05
G40U G51A U54A A64U,< 1e-05,,,,
G37U C71U,< 1e-05,,,< 1e-05,
A39C U49G,< 1e-05,6.91e-05 ± 9.5e-06,< 1e-05,,4.21e-05 ± 1.9e-05
G40U U55G,0.000102 ± 1.4e-05,0.00228 ± 0.00046,0.000149 ± 2.2e-05,0.000543 ± 9.9e-05,0.00142 ± 0.00023
G43C A48U G51C G63A C71U,< 1e-05,< 1e-05,,,
G38U U46A,< 1e-05,,< 1e-05,,< 1e-05
G40A U54A,0.000696 ± 0.00017,,,0.000502 ± 0.00015,0.00212 ± 0.00077
G37C U57A,< 1e-05,< 1e-05,,< 1e-05,
G44A G59C,< 1e-05,< 1e-05,< 1e-05,< 1e-05,< 1e-05
G44A U56C G63A,< 1e-05,< 1e-05,,,

Variant,self-cleavage kobs at 40 uM GlcN6P [1] [s⁻¹],self-cleavage kobs at 10000 uM GlcN6P [2] [s⁻¹],self-cleavage kobs at 160 uM GlcN6P [3] [s⁻¹],self-cleavage kobs at 640 uM GlcN6P [4] [s⁻¹],self-cleavage kobs at 2500 uM GlcN6P [5] [s⁻¹]
U45G U57C,< 1e-05,7.89e-05 ± 9.7e-06,< 1e-05,,3.94e-05 ± 1.4e-05
G41A U46G G51U,< 1e-05,,,,
G37C G63A,< 1e-05,< 1e-05,,< 1e-05,< 1e-05
A42U G63A,< 1e-05,< 1e-05,,< 1e-05,
A36U G51A,< 1e-05,< 1e-05,< 1e-05,,
A42G U55A G63C,< 1e-05,,,,< 1e-05
A36G U45C U56A,< 1e-05,,,,
G37A C61U,< 1e-05,,,< 1e-05,< 1e-05
G37A A39C G40U,< 1e-05,4.03e-05 ± 1e-05,,,
A39U G59C,< 1e-05,< 1e-05,< 1e-05,< 1e-05,< 1e-05
A42U C61U,< 1e-05,< 1e-05,< 1e-05,< 1e-05,< 1e-05
A36U C50G U69C,0.000561 ± 0.00011,0.000905 ± 0.00017,,,
G41A G44A,< 1e-05,< 1e-05,< 1e-05,,< 1e-05
A36G G62C C67U,< 1e-05,< 1e-05,,,
G43U C61U C68U,< 1e-05,< 1e-05,,< 1e-05,
G44U A52G A53U,< 1e-05,< 1e-05,,,
G40A C61A,< 1e-05,,< 1e-05,< 1e-05,
G38U U45G C67U,< 1e-05,< 1e-05,,,
G41U G44C,< 1e-05,< 1e-05,< 1e-05,< 1e-05,< 1e-05
G40U A52C,< 1e-05,,< 1e-05,,
G38C G43U,< 1e-05,< 1e-05,< 1e-05,< 1e-05,< 1e-05
A36U A64G U69A C71G,6.16e-05 ± 2.9e-05,,,,

Variant,self-cleavage kobs at 40 uM GlcN6P [1] [s⁻¹],self-cleavage kobs at 10000 uM GlcN6P [2] [s⁻¹],self-cleavage kobs at 160 uM GlcN6P [3] [s⁻¹],self-cleavage kobs at 640 uM GlcN6P [4] [s⁻¹],self-cleavage kobs at 2500 uM GlcN6P [5] [s⁻¹]
G43A G51U G63C A64G,< 1e-05,,,< 1e-05,< 1e-05
G40A U69A,< 1e-05,< 1e-05,,< 1e-05,< 1e-05
G38U G66C,< 1e-05,,,< 1e-05,
G43C U46G,< 1e-05,,< 1e-05,< 1e-05,< 1e-05
G43C U46C,< 1e-05,,< 1e-05,< 1e-05,< 1e-05
G37U A52U U57A,< 1e-05,,,,
G40A U55G C68G,< 1e-05,,,,
A36G G51A A52G,< 1e-05,,,,
A36G U57A,< 1e-05,< 1e-05,< 1e-05,< 1e-05,< 1e-05
A42U A52C,< 1e-05,,< 1e-05,< 1e-05,< 1e-05
A39U G62U,< 1e-05,< 1e-05,,,
G38U U57G C67U C70U,8e-05 ± 2.6e-05,4.29e-05 ± 1.9e-05,,0.000114 ± 4.7e-05,0.0013 ± 0.00059
G41C C61U,< 1e-05,< 1e-05,< 1e-05,< 1e-05,< 1e-05
G37C U45C,< 1e-05,,< 1e-05,,
A36U G40A,< 1e-05,< 1e-05,,,
A36C G66A,< 1e-05,< 1e-05,,,
G41A C58G,< 1e-05,< 1e-05,< 1e-05,< 1e-05,< 1e-05
G41C C68G,< 1e-05,< 1e-05,< 1e-05,< 1e-05,< 1e-05
A36C G59U C68G,< 1e-05,,,,
G37A G51A,< 1e-05,< 1e-05,,< 1e-05,
